Test results reported in patent US20130324704A1 (published 2013).
Positions count from the first letter of the chain named. One block for each binder: values may come before it.

Experiments:
[1] = target: EGFL7 coated on plates in the Cell Adhesion Assay (mouse EGFL7 (mEGFL7-CB-His) or human EGFL7 (EGFL7-CB-His)); …; assay: cell-based or functional assay
[2] = target: T1, Mouse EGFL7 (mEGFL7-CB-His) (mouse, UniProt Q9QXT5 22-275); assay: SPR (Biacore) at 37 C, IgG over immobilized mEGFL7-CB
T1 construct: Limits of the construct and the CB(-His) tag are not described; also called murine EGFL7
T1 sequence: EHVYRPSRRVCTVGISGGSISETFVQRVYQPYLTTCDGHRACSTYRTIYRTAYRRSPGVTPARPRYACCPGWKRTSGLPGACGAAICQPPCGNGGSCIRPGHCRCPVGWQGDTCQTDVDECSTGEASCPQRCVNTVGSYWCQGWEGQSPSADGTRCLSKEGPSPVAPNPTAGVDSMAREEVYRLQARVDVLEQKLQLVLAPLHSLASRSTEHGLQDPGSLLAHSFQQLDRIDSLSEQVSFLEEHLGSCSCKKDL

- Cell Adhesion Assay Variant/ch4F11 (fold) [1]: 4.01 fold
B1: 4F11.v6, IgG (antibody, V domains shown)
VH: EVQLVESGGGLVQPGGSLRLSCAASGHTFTTYGMSWVRQAPGKGLEWVGWINTHSGVPTYADDFKGRFTISRDNSKNTVYLQMNSLRAEDTAVYYCARLGSSAVDYWGQGTLVTVSS
VL: DIQMTQSPSSLSASVGDRVTITCKASQSVDYDGDSYMSWYQQKPGKAPKLLIYGASYLESGVPSRFSGSGSGTDFTLTISSLQPEDFATYYCQQNNEDPYTFGQGTKVEIK

- Cell Adhesion Assay Variant/ch4F11 (fold) [1]: 4.38 fold
B2: 4F11.v10, IgG (antibody, V domains shown)
VH: B1 VH with S102Y
VL: B1 VL

- Kd [2]: 6.8 nM
B3: hu18F7.v6J, IgG (antibody, V domains shown)
VH: EVQLVESGGGLVQPGGSLRLSCAASGYTFIDYYMNWVRQAPGKGLEWVGDINLDNSGTHYNQKFKGRFTISRDKSKNTAYLQMNSLRAEDTAVYYCAREGVYHDYDDYAMDYWGQGTLVTVSS
VL: DIQMTQSPSSLSASVGDRVTITCRTSQSLVHINSITYLHWYQQKPGKAPKLLIYRVSNRFSGVPSRFSGSGSGTDFTLTISSLQPEDFATYYCGQSTHVPLTFGQGTKVEIK
notes: Variant of 18F7.v6; Expressed as IgG
